This note sets out measurements from FireProtDB (doi:10.1016/j.csbj.2015.03.010).

First the molecules themselves.
B1: Arabinogalactan endo-beta-1,4-galactanase, P48842 (parent)
chain: MFASLLLAALPLLTHAALTYRGADISSLLLLEDEGYSYKNLNGQTQALETILADAGINSIRQRVWVNPSDGSYDLDYNLELAKRVKAAGMSLYLDLHLSDTWADPSDQTTPSGWSTTDLGTLKWQLYNYTLEVCNTFAENDIDIEIISIGNEIRAGLLWPLGETSSYSNIGALLHSGAWGVKDSNLATTPKIMIHLDDGWSWDQQNYFYETVLATGELLSTDFDYFGVSYYPFYSASATLASLKTSLANLQSTYDKPVVVVETNWPVSCPNPAYAFPSDLSSIPFSVAGQQEFLEKLAAVVEATTDGLGVYYWEPAWIGNAGLGSSCADNLMVDYTTDEVYESIETLGEL

This data set covers variants of B1. To be noted: Aspergillus aculeatus; pH 4.5; Thermal; DSC; sodium acetate buffer 50 mM; transition: 2; reversible: no; structure 1FHL; whole UniProt chain shown.

For the variant G120D A172R, the Tm (commonly the temperature at which the thermal transition is half complete) came to 60.7 °C and the “change of melting temperature, mutant - wild type (higher = more stable)” value (from here on “change of melting temperature, mutant”) was -0.18 °C.

Consider Y311F, for which the Tm is 61.2 °C and the “change of melting temperature, mutant” value amounted to 0.34 °C.

Turning to D74N, the Tm was determined as 61.5 °C and the “change of melting temperature, mutant” value was 0.65 °C.

With S201D Q204T, the Tm was found to be 61 °C and the “change of melting temperature, mutant” value worked out at 0.11 °C.

G322A: the Tm stood at 62 °C and the “change of melting temperature, mutant” value is 1.1 °C.

Turning to D198N, the Tm turned out to be 61.4 °C and the “change of melting temperature, mutant” value was determined as 0.53 °C.
